The test addresses T1, peptide spanning amino acids 14-28 of human ghrelin (human).
T1 peptide: QRKESKKPPAKLQPR
The experiment in a line: FLIPR assay, peptide competes with hGhrelin for the Fab (Fab 20 nM). The method, then: The final concentration of the sample solution is 0.75% BSA, and calcium at approximately the same concentration as in the FLIPR buffer. Fifty microliters of the sample solution is added to the 50 μl FLIPR buffer in the well with the AV12 cells. […] The cell plate is shaken for 15 seconds prior to loading it into the FLIPR instrument. Test samples or control samples are added to each well, and read by a Fluorometric Imaging Plate Reader (Molecular Devices).

From patent US20060233788A1 (published 2006) come the findings set out here.

B1: Fab 1451 (Fab, V domains shown)
VH: QVHVKQSGPELVRPGASVKMSCKASAYTFTTYWMHWVKQRPGQGLEWIGMIDPYNSETWLNQKFKDKATLNVDRSSNTAYMKLSSLTSEDSAVYYCARTGFDYWGQGTTLTVSS
VL: DVVLTQTPLSLPVSLGDQASISCRSSQSLVHSNGNTYLHWYLQKPGQSPKLLIYKVSNRFSGVPDRFSGSGSGTDFTLKISRVEAEDLGVYFCSQSTHVPYTFGGGTKLEIKR
notes: Mouse Fab
On to B1, for which the binding result was “no binding (tested: 100 nM peptide)”.
